This note sets out measurements from paper PMC5758874 (Nucleic Acids Research, 2017).

For one series, the target named is T1, RcsB A93D (Salmonella enterica serovar Typhimurium, UniProt P58663 1-210, A93D).
T1 sequence: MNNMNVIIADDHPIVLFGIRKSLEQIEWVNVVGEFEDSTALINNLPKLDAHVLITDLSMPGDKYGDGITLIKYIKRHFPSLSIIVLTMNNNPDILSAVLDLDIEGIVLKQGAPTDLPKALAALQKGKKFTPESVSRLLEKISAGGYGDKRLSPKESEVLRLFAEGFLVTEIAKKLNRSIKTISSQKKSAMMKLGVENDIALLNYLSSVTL
Description: EMSA. In general terms: In EMSA bound probe runs differently from free probe, usually more slowly.

For a further series, the target named is T2, RcsB M88A (Salmonella enterica serovar Typhimurium, UniProt P58663 1-210, M88A).
T2 sequence: T1 sequence with M88A, D93A
Put plainly: EMSA.

For series [1], the target named is T3, RcsB WT (Salmonella enterica serovar Typhimurium, UniProt P58663 1-210).
T3 sequence: T1 sequence with D93A
Put plainly: EMSA.

Another series concerns the target T4, RcsB H12A (Salmonella enterica serovar Typhimurium, UniProt P58663 1-210, H12A).
T4 sequence: T1 sequence with H12A, D93A
Put plainly: EMSA.

A further series deals with T5, RcsB Q185A (Salmonella enterica serovar Typhimurium, UniProt P58663 1-210, Q185A).
T5 sequence: T1 sequence with D93A, Q185A
Put plainly: EMSA.

The target of a further series is T6, RcsB L202F (Salmonella enterica serovar Typhimurium, UniProt P58663 1-210, L202F).
T6 sequence: T1 sequence with D93A, L202F
Put plainly: EMSA.

In another series the target is T7, RcsB K180A (Salmonella enterica serovar Typhimurium, UniProt P58663 1-210, K180A).
T7 sequence: T1 sequence with D93A, K180A
Description: EMSA.

For the next series, the target named is T8, RcsB L202D (Salmonella enterica serovar Typhimurium, UniProt P58663 1-210, L202D).
T8 sequence: T1 sequence with D93A, L202D
Description: EMSA.

The target in the next series is T9, RcsB D56A (Salmonella enterica serovar Typhimurium, UniProt P58663 1-210, D56A).
T9 sequence: T1 sequence with D56A, D93A
Put plainly: EMSA.

The target in series [2] is T3, RcsB WT. Description: EMSA. The source holds these as a separate data set.
Series [3] concerns the molecule itself. Description: crystal structure.
The series “SEC” concerns the molecule itself. Put plainly: SEC. Background: SEC sorts molecules by how far they enter the pores of the column.
Series [4] concerns the molecule itself. Put plainly: crystal structure. This is another data set of the same source.

Changes are numbered by the printed parent chain. Names and notes keep the numbering of the source. Values joined by “and” are separate entries in the source; they are usually repeats but may differ in a detail not shown here. Equal entries are not always repeated. Where two headings read alike, the source gives them in different places.

B1: P1flhDC (dsDNA)
DNA 1: CGTCGAATTAGGAAAAATCTTAGGCA
DNA 2: TGCCTAAGATTTTTCCTAATTCGACG
Regarding B1, the binding result in the series with RcsB A93D was “no binding”; in the series with RcsB M88A, “binds”; with RcsB WT [1], “binds”; with RcsB H12A, “no binding”; in the series with RcsB Q185A, “no binding”; with RcsB L202F, “binds”. Further, the binding result with RcsB K180A, with RcsB L202D and in the series with RcsB D56A was “no binding” throughout.

B2: rcsA promoter (dsDNA)
DNA 1: CCTGTTTTACTAAGGTTTATCCGAAAATA
DNA 2: TATTTTCGGATAAACCTTAGTAAAACAGG
On to B2, for which the binding result in the series with RcsB A93D is on record as “no binding”; in the series with RcsB WT [2] it was “binds”; in the series with RcsB Q185A, “no binding”; with RcsB K180A, “no binding”.

B3: RcsB from Salmonella enterica serovar Typhimurium (residues 1-210), wild type (natural protein, UniProt P58663 1-210, looked up)
chain: T1 sequence with D93A
As to B3, in the series “crystal structure [3]”, the stoichiometry N – broadly, the number of molecules, sites or subunits per partner or assembly – turned out to be 2.

B4: Phosphorylated RcsB from S. Typhimurium (wild type incubated with acetylphosphate) (natural protein, Salmonella enterica serovar Typhimurium, UniProt P58663 1-210, looked up)
chain: T1 sequence with D93A
modifications: phosphorylated at D56 by incubation with acetylphosphate (AcP)
On to B4, for which the “stoichiometry N” value in the series “SEC” was 2.

B5: RcsB S207C variant (natural protein, Salmonella enterica serovar Typhimurium, UniProt P58663 1-210, looked up)
chain: T1 sequence with D93A, S207C
For the molecule B5, the “stoichiometry N” value in “crystal structure [4]” was 2 and 6.

B6: RcsB M88A variant, incubated with acetylphosphate (natural protein, Salmonella enterica serovar Typhimurium, UniProt P58663 1-210, looked up)
chain: T1 sequence with M88A, D93A
modifications: phosphorylated (D56) by incubation with acetylphosphate; higher level than the WT
For B6, in “SEC”, the binding result is recorded as “binds”.

B7: RcsB E170A variant, incubated with acetylphosphate (natural protein, Salmonella enterica serovar Typhimurium, UniProt P58663 1-210, looked up)
chain: T1 sequence with D93A, E170A
modifications: phosphorylated (D56) by incubation with acetylphosphate; reduced level against the WT
Turning to B7, in the series “SEC”, the binding result was “binds”.
